Numbering of substitutions follows the chain as printed. Names and notes keep the numbering of the source.
B1: FAP (4B9)-CD40 Contorsbody P1AE1800 (bispecific antibody, IgG1)
chain 1: not shown
chain 2: DIQMTQSPSSLSASVGDRVTITCRSSQSLVHSNGNTFLHWYQQKPGKAPKLLIYTVSNRFSGVPSRFSGSGSGTDFTLTISSLQPEDFATYFCSQTTHVPWTFGGGTKVEIKRTVAAPSVFIFPPSDEQLKSGTASVVCLLNNFYPREAKVQWKVDNALQSGNSQESVTEQDSKDSTYSLSSTLTLSKADYEKHKVYACEVTHQGLSSPVTKSFNRGECGGGGSGGGGSDKTHTCPPCPAPEAAGGPSVFLFPPKPKDTLMISRTPEVTCVVVDVSHEDPEVKFNWYVDGVEVHNAKTKPREEQYNSTYRVVSVLTVLHQDWLNGKEYKCKVSNKALGAPIEKTISKAKGQPREPQVCTLPPSRDELTKNQVSLSCAVKGFYPSDIAVEWESNGQPENNYKTTPPVLDSDGSFFLVSKLTVDKSRWQQGNVFSCSVMHEALHNHYTQKSLSLSPGKGGGGSGGGGSEVQLLESGGGLVQPGGSLRLSCAASGYSFTGYYIHWVRQAPGKGLEWVGRVIPNAGGTSYNQKFKGRFTISVDNSKNTAYLQMNSLRAEDTAVYYCAREGIYWWGQGTTVTVSSASTKGPSVFPLAPSSKSTSGGTAALGCLVKDYFPEPVTVSWNSGALTSGVHTFPAVLQSSGLYSLSSVVTVPSSSLGTQTYICNVNHKPSNTKVDKKVEPKSCGGGGSGGGGSGGGSGGGGSEIVLTQSPGTLSLSPGERATLSCRASQSVTSSYLAWYQQKPGQAPRLLINVGSRRATGIPDRFSGSGSGTDFTLTISRLEPEDFAVYYCQQGIMLPPTFGQGTKVEIKSSASTKGPSVFPLAPSSKSTSGGTAALGCLVKDYFPEPVTVSWNSGALTSGVHTFPAVLQSSGLYSLSSVVTVPSSSLGTQTYICNVNHKPSNTKVDKKVEPKSC
notes: 2+1 contorsbody; IgG1 Fc knob/hole, P329G LALA
B2: FAP (4B9)-CD40 Contorsbody P1AE2052 (bispecific antibody, IgG1)
chain 1: not shown
chain 2: B1 chain 2
notes: as for B1
B3: FAP (4B9)-CD40 Contorsbody P1AE1902 (bispecific antibody, IgG1)
chain 1: not shown
chain 2: EVQLLESGGGLVQPGGSLRLSCAASGYSFTGYYIHWVRQAPGKGLEWVGRVIPNAGGTSYNQKFKGRFTISVDNSKNTAYLQMNSLRAEDTAVYYCAREGIYWWGQGTTVTVSSASTKGPSVFPLAPSSKSTSGGTAALGCLVKDYFPEPVTVSWNSGALTSGVHTFPAVLQSSGLYSLSSVVTVPSSSLGTQTYICNVNHKPSNTKVDKKVEPKSCGGGGSGGGGSDKTHTCPPCPAPEAAGGPSVFLFPPKPKDTLMISRTPEVTCVVVDVSHEDPEVKFNWYVDGVEVHNAKTKPREEQYNSTYRVVSVLTVLHQDWLNGKEYKCKVSNKALGAPIEKTISKAKGQPREPQVCTLPPSRDELTKNQVSLSCAVKGFYPSDIAVEWESNGQPENNYKTTPPVLDSDGSFFLVSKLTVDKSRWQQGNVFSCSVMHEALHNHYTQKSLSLSPGKGGGGSGGGGSDIQMTQSPSSLSASVGDRVTITCRSSQSLVHSNGNTFLHWYQQKPGKAPKLLIYTVSNRFSGVPSRFSGSGSGTDFTLTISSLQPEDFATYFCSQTTHVPWTFGGGTKVEIKRTVAAPSVFIFPPSDEQLKSGTASVVCLLNNFYPREAKVQWKVDNALQSGNSQESVTEQDSKDSTYSLSSTLTLSKADYEKHKVYACEVTHQGLSSPVTKSFNRGECGGGGSGGGGSGGGSGGGGSEVQLLESGGGLVQPGGSLRLSCAASGFTFSSYAMSWVRQAPGKGLEWVSAIIGSGASTYYADSVKGRFTISRDNSKNTLYLQMNSLRAEDTAVYYCAKGWFGGFNYWGQGTLVTVSSASVAAPSVFIFPPSDEQLKSGTASVVCLLNNFYPREAKVQWKVDNALQSGNSQESVTEQDSKDSTYSLSSTLTLSKADYEKHKVYACEVTHQGLSSPVTKSFNRGEC
notes: as for B1
B4: FAP (4B9)-CD40 Contorsbody P1AE1901 (bispecific antibody, IgG1)
chain 1: not shown
chain 2: DIQMTQSPSSLSASVGDRVTITCRSSQSLVHSNGNTFLHWYQQKPGKAPKLLIYTVSNRFSGVPSRFSGSGSGTDFTLTISSLQPEDFATYFCSQTTHVPWTFGGGTKVEIKRTVAAPSVFIFPPSDEQLKSGTASVVCLLNNFYPREAKVQWKVDNALQSGNSQESVTEQDSKDSTYSLSSTLTLSKADYEKHKVYACEVTHQGLSSPVTKSFNRGECGGGGSGGGGSDKTHTCPPCPAPEAAGGPSVFLFPPKPKDTLMISRTPEVTCVVVDVSHEDPEVKFNWYVDGVEVHNAKTKPREEQYNSTYRVVSVLTVLHQDWLNGKEYKCKVSNKALGAPIEKTISKAKGQPREPQVCTLPPSRDELTKNQVSLSCAVKGFYPSDIAVEWESNGQPENNYKTTPPVLDSDGSFFLVSKLTVDKSRWQQGNVFSCSVMHEALHNHYTQKSLSLSPGKGGGGSGGGGSEVQLLESGGGLVQPGGSLRLSCAASGYSFTGYYIHWVRQAPGKGLEWVGRVIPNAGGTSYNQKFKGRFTISVDNSKNTAYLQMNSLRAEDTAVYYCAREGIYWWGQGTTVTVSSASTKGPSVFPLAPSSKSTSGGTAALGCLVKDYFPEPVTVSWNSGALTSGVHTFPAVLQSSGLYSLSSVVTVPSSSLGTQTYICNVNHKPSNTKVDKKVEPKSCGGGGSGGGGSGGGSGGGGSEVQLLESGGGLVQPGGSLRLSCAASGFTFSSYAMSWVRQAPGKGLEWVSAIIGSGASTYYADSVKGRFTISRDNSKNTLYLQMNSLRAEDTAVYYCAKGWFGGFNYWGQGTLVTVSSASVAAPSVFIFPPSDEQLKSGTASVVCLLNNFYPREAKVQWKVDNALQSGNSQESVTEQDSKDSTYSLSSTLTLSKADYEKHKVYACEVTHQGLSSPVTKSFNRGEC
notes: as for B1
B5: FAP (4B9)-CD40 Contorsbody P1AE1799 (bispecific antibody, IgG1)
chain 1: not shown
chain 2: EVQLLESGGGLVQPGGSLRLSCAASGYSFTGYYIHWVRQAPGKGLEWVGRVIPNAGGTSYNQKFKGRFTISVDNSKNTAYLQMNSLRAEDTAVYYCAREGIYWWGQGTTVTVSSASTKGPSVFPLAPSSKSTSGGTAALGCLVKDYFPEPVTVSWNSGALTSGVHTFPAVLQSSGLYSLSSVVTVPSSSLGTQTYICNVNHKPSNTKVDKKVEPKSCGGGGSGGGGSDKTHTCPPCPAPEAAGGPSVFLFPPKPKDTLMISRTPEVTCVVVDVSHEDPEVKFNWYVDGVEVHNAKTKPREEQYNSTYRVVSVLTVLHQDWLNGKEYKCKVSNKALGAPIEKTISKAKGQPREPQVCTLPPSRDELTKNQVSLSCAVKGFYPSDIAVEWESNGQPENNYKTTPPVLDSDGSFFLVSKLTVDKSRWQQGNVFSCSVMHEALHNHYTQKSLSLSPGKGGGGSGGGGSDIQMTQSPSSLSASVGDRVTITCRSSQSLVHSNGNTFLHWYQQKPGKAPKLLIYTVSNRFSGVPSRFSGSGSGTDFTLTISSLQPEDFATYFCSQTTHVPWTFGGGTKVEIKRTVAAPSVFIFPPSDEQLKSGTASVVCLLNNFYPREAKVQWKVDNALQSGNSQESVTEQDSKDSTYSLSSTLTLSKADYEKHKVYACEVTHQGLSSPVTKSFNRGECGGGGSGGGGSGGGSGGGGSEIVLTQSPGTLSLSPGERATLSCRASQSVTSSYLAWYQQKPGQAPRLLINVGSRRATGIPDRFSGSGSGTDFTLTISRLEPEDFAVYYCQQGIMLPPTFGQGTKVEIKSSASTKGPSVFPLAPSSKSTSGGTAALGCLVKDYFPEPVTVSWNSGALTSGVHTFPAVLQSSGLYSLSSVVTVPSSSLGTQTYICNVNHKPSNTKVDKKVEPKSC
notes: as for B1
B6: FAP (4B9)-CD40 Contorsbody P1AE2255 (bispecific antibody, IgG1)
chain 1: not shown
chain 2: B5 chain 2 with K144E, K210E, E592R, Q593K
notes: 2+1 contorsbody with charged residues in the CD40 Fabs; IgG1 Fc knob/hole, P329G LALA

Each binder was assayed against T1, recombinant human FAP (human, UniProt Q12884 26-760) (assay: SPR, huFAP captured (anti-His), Ab analyte).
T1 construct: exact construct not described; also called FAP ECD; not shown: The histidine tag (and any linker to it) implied by capture on an anti-histidine antibody
Experimental: Around 12000 resonance units (RU) of the capturing system (15 μg/ml anti-histidine antibody; Order Code: 28995056; GE Healthcare Bio-Sciences AB, Sweden) were coupled on a CMS chip (GE Healthcare BR-1005-30) at pH 4.5 by using an amine coupling kit supplied by the GE Healthcare. Running buffer for Immobilization was HBS-N pH 7.4 (10 mM HEPES, 150 mM NaCl, pH 7.4, GE Healthcare). For the following kinetic characterization running buffer was PBS-P pH 7.4 (20 mM phosphate buffer, 2.7 mM KCl, 137 mM NaCl, 0.05% surfactant P20). The flow cell was set to 25° C.—and the sample block set to 12° C.—and primed with running buffer twice. […] The dissociation phase was monitored for up to 720 s and triggered by switching from the sample solution to running buffer. The surface was regenerated by washing with 10 mM Glycine pH 1.5 for 60 s at a flow rate of 30 μl/min. Bulk refractive index differences were corrected by subtracting the response obtained from an anti-histidine surface. Blank injections are also subtracted (=double referencing). For calculation of KD and kinetic parameters the Langmuir 1:1 model was used.

Kd	koff	kon	t 1/2	Binder
9.07 nM	0.000778 s⁻¹	85700 M⁻¹ s⁻¹	14.8 min	B1
8.31 nM	0.000296 s⁻¹	35600 M⁻¹ s⁻¹	39.1 min	B2
5.33 nM	0.000288 s⁻¹	54100 M⁻¹ s⁻¹	40.1 min	B3
7.05 nM	0.000269 s⁻¹	38200 M⁻¹ s⁻¹	43 min	B4
4.58 nM	0.000253 s⁻¹	55300 M⁻¹ s⁻¹	45.7 min	B5
4.44 nM	0.000235 s⁻¹	52800 M⁻¹ s⁻¹	49.2 min	B6

Each binder was assayed against T2, recombinant human CD40_ECD (human, UniProt P25942 21-193) (assay: SPR Biacore T200, huCD40 ECD analyte, apparent KD).
T2 construct: also called human CD40 extra cellular domain
Experimental: The capacity of the bispecific constructs to bind human CD40 was assessed by surface plasmon resonance (SPR). […] Bulk refractive index differences were corrected by subtracting the response obtained from a goat anti human F(ab′)2 surface. Blank injections are also subtracted (=double referencing). For calculation of apparent KD and other kinetic parameters the Langmuir 1:1 model was used. The apparent Kd was calculated using the Biacore™ B4000 evaluation software (version 1.1).

Kd	koff	kon	t 1/2	Binder
9.43 nM	0.0127 s⁻¹	1.35e+06 M⁻¹ s⁻¹	0.917 min	B1
7.2 nM	0.00681 s⁻¹	945000 M⁻¹ s⁻¹	1.7 min	B2
18.7 nM	0.0145 s⁻¹	776000 M⁻¹ s⁻¹	0.8 min	B3
6.98 nM	0.00692 s⁻¹	991000 M⁻¹ s⁻¹	1.67 min	B4
15.7 nM	0.0151 s⁻¹	957000 M⁻¹ s⁻¹	0.767 min	B5
17.3 nM	0.0159 s⁻¹	918000 M⁻¹ s⁻¹	0.733 min	B6
